This is an account of results in patent US20260209362A1 (VIB VZW, published 2026).

Experiment [1] has as its target T1, biotinylated recombinant human IL-12Rβ2 (produced in-house) (human, UniProt Q99665 24-622, random biotinylated).
T1 construct: also called hIL-12RB2; hIL12RB2
T1 sequence: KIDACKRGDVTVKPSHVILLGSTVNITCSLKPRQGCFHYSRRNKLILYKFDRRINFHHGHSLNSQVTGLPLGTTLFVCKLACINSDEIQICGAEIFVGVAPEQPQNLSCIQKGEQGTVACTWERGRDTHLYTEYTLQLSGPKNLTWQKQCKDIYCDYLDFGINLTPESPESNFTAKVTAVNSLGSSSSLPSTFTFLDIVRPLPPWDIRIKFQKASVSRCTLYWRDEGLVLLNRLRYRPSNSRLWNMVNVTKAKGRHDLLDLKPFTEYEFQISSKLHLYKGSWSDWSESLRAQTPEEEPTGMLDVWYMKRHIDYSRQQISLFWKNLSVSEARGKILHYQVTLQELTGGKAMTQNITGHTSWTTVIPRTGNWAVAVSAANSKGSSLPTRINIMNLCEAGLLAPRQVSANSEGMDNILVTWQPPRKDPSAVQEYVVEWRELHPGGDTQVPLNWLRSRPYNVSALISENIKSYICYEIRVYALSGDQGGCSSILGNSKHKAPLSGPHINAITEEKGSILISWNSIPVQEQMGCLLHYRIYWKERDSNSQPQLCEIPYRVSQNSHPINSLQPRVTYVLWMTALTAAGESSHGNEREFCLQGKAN
As to the kind of experiment: BLI (Octet), P.E. VHH on immobilised biotinylated hIL-12RB2. (In general: BLI is a label-free optical method that tracks binding on a fibre tip over time.)

Experiment [2] addresses T2, mouse IL-12Rβ2 expressed on cells (mouse, UniProt P97378 24-874).
T2 construct: HEK293T cells, stably transduced (cDNA NM_008354); also called mIL-12RB2
T2 sequence: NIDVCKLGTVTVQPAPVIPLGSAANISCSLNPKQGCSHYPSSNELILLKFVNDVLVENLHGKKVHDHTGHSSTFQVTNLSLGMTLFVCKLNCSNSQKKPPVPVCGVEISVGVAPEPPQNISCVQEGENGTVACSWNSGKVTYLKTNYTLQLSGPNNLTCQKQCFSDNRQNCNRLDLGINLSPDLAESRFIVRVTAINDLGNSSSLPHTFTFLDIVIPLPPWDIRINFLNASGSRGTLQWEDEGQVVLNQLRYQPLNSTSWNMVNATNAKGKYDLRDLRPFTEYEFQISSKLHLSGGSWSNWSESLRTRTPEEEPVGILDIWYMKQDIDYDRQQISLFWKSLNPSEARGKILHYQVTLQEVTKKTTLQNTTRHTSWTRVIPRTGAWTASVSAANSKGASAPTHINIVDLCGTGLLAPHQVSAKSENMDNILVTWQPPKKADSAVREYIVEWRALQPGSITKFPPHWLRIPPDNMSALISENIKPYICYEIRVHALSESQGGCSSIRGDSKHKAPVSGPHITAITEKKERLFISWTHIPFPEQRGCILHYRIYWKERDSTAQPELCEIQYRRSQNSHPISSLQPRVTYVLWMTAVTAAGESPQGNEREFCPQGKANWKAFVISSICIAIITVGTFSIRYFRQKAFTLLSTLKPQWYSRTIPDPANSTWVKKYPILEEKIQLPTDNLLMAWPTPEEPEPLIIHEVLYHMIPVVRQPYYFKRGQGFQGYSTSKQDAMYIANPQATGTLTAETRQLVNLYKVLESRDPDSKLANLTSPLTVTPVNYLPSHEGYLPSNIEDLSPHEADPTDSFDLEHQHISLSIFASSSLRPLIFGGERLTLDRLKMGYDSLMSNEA
Description: flow cytometry, P.E. VHH on HEK293T cells stably expressing mIL-12RB2. In general terms: In flow cytometry, cells or beads pass a laser one at a time.

The target in experiment [3] is T3, biotinylated recombinant mouse IL-12Rβ2 (produced in-house) (mouse, UniProt P97378 24-637, random biotinylated).
T3 construct: also called mIL-12RB2; mIL12RB2
T3 sequence: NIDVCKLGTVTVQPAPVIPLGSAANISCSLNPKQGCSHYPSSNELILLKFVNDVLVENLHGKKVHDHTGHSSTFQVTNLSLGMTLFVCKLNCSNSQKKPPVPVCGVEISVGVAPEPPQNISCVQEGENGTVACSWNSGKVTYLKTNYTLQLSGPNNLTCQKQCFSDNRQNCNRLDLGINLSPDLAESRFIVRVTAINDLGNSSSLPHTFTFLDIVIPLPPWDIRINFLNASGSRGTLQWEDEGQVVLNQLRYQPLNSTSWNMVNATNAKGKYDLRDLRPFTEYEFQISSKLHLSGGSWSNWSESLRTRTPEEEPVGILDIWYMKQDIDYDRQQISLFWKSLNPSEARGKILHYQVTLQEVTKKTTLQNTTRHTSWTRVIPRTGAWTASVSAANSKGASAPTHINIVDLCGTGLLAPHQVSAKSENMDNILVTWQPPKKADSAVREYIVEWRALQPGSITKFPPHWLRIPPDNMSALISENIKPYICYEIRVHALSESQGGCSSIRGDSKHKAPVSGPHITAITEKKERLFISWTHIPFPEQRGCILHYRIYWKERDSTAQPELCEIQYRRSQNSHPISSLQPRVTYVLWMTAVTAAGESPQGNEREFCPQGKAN
As to the kind of experiment: BLI (Octet), P.E. VHH on immobilised biotinylated mIL-12RB2, 1:1 model.

The target of experiment [4] is T1, biotinylated recombinant human IL-12Rβ2 …. Description: ELISA, P.E. VHH on biotinylated hIL-12RB2, signal ratio to control well. A general note: ELISA stands for enzyme-linked immunosorbent assay.
For experiment [5], the target named is T3, biotinylated recombinant mouse IL-12Rβ2 …. Description: ELISA, P.E. VHH on biotinylated mIL-12RB2, signal ratio to control well.
Experiment [6] concerns the target T2, mouse IL-12Rβ2 expressed on cells. As to the kind of experiment: flow cytometry, P.E. VHH on HEK293T cells transiently expressing mIL-12RB2.

B1: anti-IL-12Rβ2 VHH clone 3CRHM73 (VHH, not shown: small tags and cut ends)
VHH: QVQLQESGGGLVQAGGSLSLSCAASGSAFRLNFMGWYRQAPGKQRELVAAINSGGTEIYHDSVKGRFTISRDNADSTVWLQMNSLKPDDTAVYYCAADRGISWSKLAGGMDYWGKGTQVTVSS
notes: tested as periplasmic extract; also called 21060
Usually koff stands for the first-order rate constant of dissociation. On to B1, for which the Response in experiment [1] is 1.45. Further, in experiment [2], the “% cells bound” value came to 27.3% and the dMFI was 150. The koff in experiment [3] was determined as 0.00605 s⁻¹. Moreover, the “ELISA hIL12RB2/control” value in experiment [4] was found to be 6.9. Moreover, in experiment [5], the “ELISA mIL12RB2/control” value came to 26.3. Moreover, in experiment [6], the “% cells bound” value came out at 10.4% and the dMFI stood at 257.

B2: anti-IL-12Rβ2 VHH clone 3CRHM99 (VHH, not shown: small tags and cut ends)
VHH: QVQLQESGGGLVQPGGSLRLSCAASGISSSRLHVGWFRQSPGKEREFVAAISLSGGTQAYTDSVKGRFTISGDNVKNTAYLQMNSLRPEDTAVYYCAARERFIWTWSDLTYDYWGQGTQVTVSS
notes: tested as periplasmic extract; also called 21062
As to B2, in experiment [1], the Response was found to be 1.45. In experiment [2], the “% cells bound” value worked out at 57.3% and the dMFI amounted to 309. Also, the koff in experiment [3] was 0.00671 s⁻¹. The “ELISA hIL12RB2/control” value in experiment [4] is 4.24. The “ELISA mIL12RB2/control” value in experiment [5] was 5.24. In experiment [6], the “% cells bound” value stood at 10.7% and the dMFI was found to be 251.

B3: anti-IL-12Rβ2 VHH clone 3CRHM14 (VHH, not shown: small tags and cut ends)
VHH: QVQLQESGGGLVQAGGSLRLSCAASGRTFSNYAMAWFRQAPGTEREFVAGLSGSGGDTEFYDDSVKGRFAISRDSAKNTVWLQMNSLKPEDTAVYYCAAATHVVVHYGLVRRRGTYDYWGQGTQVTVSS
notes: tested as periplasmic extract
On to B3, for which, in experiment [1], the Response was found to be 1.19. In experiment [2], the “% cells bound” value is 26.2% and the dMFI amounted to 136. Moreover, the koff in experiment [3] amounted to 0.00483 s⁻¹. In experiment [4], the “ELISA hIL12RB2/control” value amounted to 3.11. Besides, the “ELISA mIL12RB2/control” value in experiment [5] was determined as 25.1. For the same molecule, in experiment [6], the “% cells bound” value was 18.6% and the dMFI was found to be 312.

B4: anti-IL-12Rβ2 VHH clone 3CAHM11 (VHH, not shown: small tags and cut ends)
VHH: QVQLQESGGGLVQAGGSLRLSCAASGRTFNNYAMAWFRQAPGKEREFIAAITRSDTTLYIDSVKGRFTISRDNAKNTVALQMNSLKPEDTAVYYCAAGMPYSYSDYPRDSKYDYWGRGTQVTVSS
notes: tested as periplasmic extract
With B4, in experiment [1], the Response amounted to 1.4. In addition, the “% cells bound” value turned out to be 56.9% in experiment [2] and 7.53% in experiment [6]. Further, the dMFI is 316 in experiment [2] and 194 in experiment [6]. Also, the koff in experiment [3] was 0.00462 s⁻¹. Further, the “ELISA hIL12RB2/control” value in experiment [4] is 3.04. For the same molecule, in experiment [5], the “ELISA mIL12RB2/control” value came to 38.8.
